Reference: patent US20240261333A1, “NOVEL TARGETS FOR ENHANCING ANTI-TUMOR IMMUNITY” (THE BROAD INSTITUTE, INC., priority 2021, published 2024)

What was measured:
[1] = target: EIF4G1 (UniProt Q04637); test: co-IP, anti-FLAG, C-FLAG B3GNT2 cell lysate, mass spectrometry
[2] = target: HSPB1 (UniProt P04792); test: as above
[3] = target: RPL5 (UniProt P46777); test: as above
[4] = target: RPS16 (UniProt P62249); test: as above
[5] = target: RPS19 (UniProt P39019); test: as above
[6] = target: SSRP1 (UniProt Q08945); test: as above
[7] = target: CALML5 (human) (UniProt Q9NZT1); test: control IP with IgG, lysate of cells with C-FLAG B3GNT2, mass spectrometry
[8] = target: CCT3 (human) (UniProt P49368); test: as above
[9] = target: CHCHD3 (human) (UniProt Q9NX63); test: as above
[10] = target: EIF3A (human) (UniProt Q14152); test: as above
[11] = target: EMILIN1 (human) (UniProt Q9Y6C2); test: as above
[12] = target: FLG (human) (UniProt P20930); test: as above
FLG (human), sequence (P20930 whole entry): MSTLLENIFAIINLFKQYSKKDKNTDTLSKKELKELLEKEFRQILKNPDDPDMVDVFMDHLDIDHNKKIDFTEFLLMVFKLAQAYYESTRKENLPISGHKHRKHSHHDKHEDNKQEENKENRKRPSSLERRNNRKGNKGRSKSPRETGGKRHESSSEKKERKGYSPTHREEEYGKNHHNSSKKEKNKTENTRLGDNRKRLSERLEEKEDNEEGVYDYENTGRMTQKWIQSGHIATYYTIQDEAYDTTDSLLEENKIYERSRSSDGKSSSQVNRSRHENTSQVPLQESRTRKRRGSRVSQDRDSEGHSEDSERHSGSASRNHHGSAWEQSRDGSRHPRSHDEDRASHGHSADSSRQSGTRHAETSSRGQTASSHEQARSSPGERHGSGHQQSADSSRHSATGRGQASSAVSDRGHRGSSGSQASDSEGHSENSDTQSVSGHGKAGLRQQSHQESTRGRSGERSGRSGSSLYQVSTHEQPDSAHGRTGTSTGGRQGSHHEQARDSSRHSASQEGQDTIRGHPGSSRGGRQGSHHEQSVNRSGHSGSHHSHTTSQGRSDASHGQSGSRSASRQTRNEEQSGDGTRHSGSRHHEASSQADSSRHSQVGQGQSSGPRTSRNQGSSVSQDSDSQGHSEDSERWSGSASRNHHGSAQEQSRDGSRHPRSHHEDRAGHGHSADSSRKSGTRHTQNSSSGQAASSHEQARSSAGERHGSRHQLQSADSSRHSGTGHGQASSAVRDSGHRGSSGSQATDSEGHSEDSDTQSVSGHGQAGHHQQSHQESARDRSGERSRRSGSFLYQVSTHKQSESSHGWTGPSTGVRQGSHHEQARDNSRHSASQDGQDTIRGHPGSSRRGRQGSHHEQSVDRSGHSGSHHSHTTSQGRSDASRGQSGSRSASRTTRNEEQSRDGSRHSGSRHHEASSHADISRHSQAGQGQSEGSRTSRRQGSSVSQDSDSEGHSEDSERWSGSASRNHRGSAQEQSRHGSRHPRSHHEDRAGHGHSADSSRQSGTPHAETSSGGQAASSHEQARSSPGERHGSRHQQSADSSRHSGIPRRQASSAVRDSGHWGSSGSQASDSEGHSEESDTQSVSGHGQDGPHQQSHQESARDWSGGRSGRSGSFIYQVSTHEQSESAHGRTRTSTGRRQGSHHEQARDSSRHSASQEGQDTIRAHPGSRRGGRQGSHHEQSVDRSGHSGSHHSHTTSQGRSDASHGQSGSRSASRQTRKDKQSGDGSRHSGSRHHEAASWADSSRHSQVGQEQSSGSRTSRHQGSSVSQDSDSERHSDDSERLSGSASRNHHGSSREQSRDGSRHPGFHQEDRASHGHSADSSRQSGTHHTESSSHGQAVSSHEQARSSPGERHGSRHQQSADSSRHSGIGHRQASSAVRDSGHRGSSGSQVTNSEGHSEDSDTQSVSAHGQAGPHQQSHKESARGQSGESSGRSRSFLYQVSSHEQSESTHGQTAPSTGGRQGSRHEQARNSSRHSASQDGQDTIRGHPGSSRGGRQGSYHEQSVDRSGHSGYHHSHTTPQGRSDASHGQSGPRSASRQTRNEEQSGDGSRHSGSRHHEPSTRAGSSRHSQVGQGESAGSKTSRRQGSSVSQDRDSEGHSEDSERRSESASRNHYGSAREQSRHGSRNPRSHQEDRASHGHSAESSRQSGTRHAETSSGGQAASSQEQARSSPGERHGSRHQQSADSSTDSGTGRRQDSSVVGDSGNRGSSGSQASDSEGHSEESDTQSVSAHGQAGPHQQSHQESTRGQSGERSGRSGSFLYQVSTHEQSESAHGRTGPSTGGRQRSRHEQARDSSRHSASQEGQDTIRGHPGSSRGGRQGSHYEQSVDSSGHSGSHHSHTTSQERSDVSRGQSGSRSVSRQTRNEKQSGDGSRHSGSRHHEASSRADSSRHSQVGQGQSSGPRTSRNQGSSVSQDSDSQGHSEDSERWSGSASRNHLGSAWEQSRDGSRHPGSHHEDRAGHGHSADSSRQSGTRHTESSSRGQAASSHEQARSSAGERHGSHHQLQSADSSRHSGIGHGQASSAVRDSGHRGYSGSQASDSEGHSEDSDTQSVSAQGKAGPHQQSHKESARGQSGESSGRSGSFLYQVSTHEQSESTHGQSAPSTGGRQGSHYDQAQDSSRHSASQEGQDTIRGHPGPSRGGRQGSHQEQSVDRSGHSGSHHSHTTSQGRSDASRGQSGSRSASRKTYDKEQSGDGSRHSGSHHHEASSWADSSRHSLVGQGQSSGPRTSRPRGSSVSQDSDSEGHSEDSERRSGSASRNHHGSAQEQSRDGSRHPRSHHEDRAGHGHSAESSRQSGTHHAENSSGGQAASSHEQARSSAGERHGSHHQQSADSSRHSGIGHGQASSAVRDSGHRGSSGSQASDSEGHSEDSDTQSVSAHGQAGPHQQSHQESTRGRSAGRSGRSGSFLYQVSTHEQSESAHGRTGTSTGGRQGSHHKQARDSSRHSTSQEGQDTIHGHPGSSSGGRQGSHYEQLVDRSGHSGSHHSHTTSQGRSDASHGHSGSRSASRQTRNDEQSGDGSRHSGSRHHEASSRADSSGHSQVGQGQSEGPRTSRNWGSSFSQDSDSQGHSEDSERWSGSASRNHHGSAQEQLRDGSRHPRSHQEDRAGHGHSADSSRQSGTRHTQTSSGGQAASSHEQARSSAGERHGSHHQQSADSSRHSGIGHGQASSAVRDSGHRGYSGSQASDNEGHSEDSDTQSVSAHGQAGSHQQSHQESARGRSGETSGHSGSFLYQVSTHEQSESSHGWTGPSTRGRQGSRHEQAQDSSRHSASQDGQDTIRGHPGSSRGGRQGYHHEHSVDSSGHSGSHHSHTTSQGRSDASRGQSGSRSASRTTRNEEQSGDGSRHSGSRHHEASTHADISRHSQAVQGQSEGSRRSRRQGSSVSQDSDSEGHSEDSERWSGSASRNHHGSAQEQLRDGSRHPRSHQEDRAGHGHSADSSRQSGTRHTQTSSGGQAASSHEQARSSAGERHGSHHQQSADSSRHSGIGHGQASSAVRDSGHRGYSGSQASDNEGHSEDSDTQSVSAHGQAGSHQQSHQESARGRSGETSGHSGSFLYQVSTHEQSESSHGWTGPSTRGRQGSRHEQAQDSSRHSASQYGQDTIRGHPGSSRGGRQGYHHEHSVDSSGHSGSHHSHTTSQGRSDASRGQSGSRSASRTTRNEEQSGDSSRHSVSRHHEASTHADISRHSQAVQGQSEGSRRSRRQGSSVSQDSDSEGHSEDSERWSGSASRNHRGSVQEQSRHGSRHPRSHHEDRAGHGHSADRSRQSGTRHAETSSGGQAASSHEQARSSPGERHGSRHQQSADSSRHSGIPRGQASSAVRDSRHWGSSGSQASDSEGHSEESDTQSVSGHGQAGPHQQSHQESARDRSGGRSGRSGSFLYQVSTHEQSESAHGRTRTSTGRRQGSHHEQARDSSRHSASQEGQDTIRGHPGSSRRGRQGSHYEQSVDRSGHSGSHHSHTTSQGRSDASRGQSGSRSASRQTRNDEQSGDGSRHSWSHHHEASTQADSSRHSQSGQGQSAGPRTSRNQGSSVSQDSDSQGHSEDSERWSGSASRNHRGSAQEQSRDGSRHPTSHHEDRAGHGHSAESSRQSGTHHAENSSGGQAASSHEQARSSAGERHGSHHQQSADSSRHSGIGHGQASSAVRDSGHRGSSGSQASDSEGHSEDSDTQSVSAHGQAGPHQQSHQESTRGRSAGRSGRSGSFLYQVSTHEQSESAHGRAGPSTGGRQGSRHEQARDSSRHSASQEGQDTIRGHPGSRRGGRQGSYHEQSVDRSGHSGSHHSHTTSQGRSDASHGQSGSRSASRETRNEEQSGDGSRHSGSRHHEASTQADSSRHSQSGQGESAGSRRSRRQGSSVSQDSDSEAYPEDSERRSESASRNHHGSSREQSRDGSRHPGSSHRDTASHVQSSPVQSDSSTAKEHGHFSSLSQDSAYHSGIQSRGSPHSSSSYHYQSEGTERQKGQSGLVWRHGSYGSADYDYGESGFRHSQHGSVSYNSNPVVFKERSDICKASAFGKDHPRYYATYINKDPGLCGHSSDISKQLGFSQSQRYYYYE

[13] = target: GBF1 (human) (UniProt Q92538); test: as above
[14] = target: HNRNPM (human) (UniProt P52272); test: as above
[15] = target: IL13RA2 (human) (UniProt Q14627); test: as above
[16] = target: IMMT (human) (UniProt Q16891); test: as above
[17] = target: KCTD5 (human) (UniProt Q9NXV2); test: as above
KCTD5 (human), sequence (Q9NXV2 2-234 limits assumed): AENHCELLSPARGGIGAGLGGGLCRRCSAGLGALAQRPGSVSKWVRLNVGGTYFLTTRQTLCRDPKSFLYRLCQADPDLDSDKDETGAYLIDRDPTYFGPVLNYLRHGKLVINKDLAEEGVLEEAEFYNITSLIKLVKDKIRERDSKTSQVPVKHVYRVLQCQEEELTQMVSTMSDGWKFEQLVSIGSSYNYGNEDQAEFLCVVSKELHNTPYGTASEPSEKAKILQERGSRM

[18] = target: LCN1 (human) (UniProt P31025); test: as above
[19] = target: LGALS7B (human) (UniProt P47929); test: as above
[20] = target: MAP4 (human) (UniProt P27816); test: as above
[21] = target: PKM (human) (UniProt P14618); test: as above
[22] = target: PPFIBP1 (human) (UniProt Q86W92); test: as above
[23] = target: RACK1 (human) (UniProt P63244); test: as above
[24] = target: RHOT2 (human) (UniProt Q8IXI1); test: as above
[25] = target: RPL23 (human) (UniProt P62829); test: as above
[26] = target: RPL28 (human) (UniProt P46779); test: as above
[27] = target: RPL38 (human) (UniProt P63173); test: as above
[28] = target: RPL7 (human) (UniProt P18124); test: as above
[29] = target: RPL8 (human) (UniProt P62917); test: as above
[30] = target: RPS14 (human) (UniProt P62263); test: as above
[31] = target: RPS26 (human) (UniProt P62854); test: as above
[32] = target: RPS27A (human) (UniProt P62979); test: as above
[33] = target: SERPINB3 (human) (UniProt P29508); test: as above
[34] = target: SYNCRIP (human) (UniProt O60506); test: as above
[35] = target: SYNM (human) (UniProt O15061); test: as above
[36] = target: TBL2 (human) (UniProt Q9Y4P3); test: as above
[37] = target: TELO2 (human) (UniProt Q9Y4R8); test: as above
[38] = target: TPM3 (human) (UniProt P06753); test: as above
TPM3 (human), sequence (P06753 other isoform, or with tags, fused parts or gaps limits assumed): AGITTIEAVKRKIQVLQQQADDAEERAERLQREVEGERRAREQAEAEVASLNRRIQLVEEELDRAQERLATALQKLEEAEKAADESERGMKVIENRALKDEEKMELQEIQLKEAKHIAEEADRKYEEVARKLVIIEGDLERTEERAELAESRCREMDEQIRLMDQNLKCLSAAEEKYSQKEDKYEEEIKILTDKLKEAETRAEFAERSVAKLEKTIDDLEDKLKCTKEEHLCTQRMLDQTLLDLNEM

[39] = target: YBX1 (human) (UniProt P67809); test: as above
YBX1 (human), sequence (P67809 2-324 limits assumed): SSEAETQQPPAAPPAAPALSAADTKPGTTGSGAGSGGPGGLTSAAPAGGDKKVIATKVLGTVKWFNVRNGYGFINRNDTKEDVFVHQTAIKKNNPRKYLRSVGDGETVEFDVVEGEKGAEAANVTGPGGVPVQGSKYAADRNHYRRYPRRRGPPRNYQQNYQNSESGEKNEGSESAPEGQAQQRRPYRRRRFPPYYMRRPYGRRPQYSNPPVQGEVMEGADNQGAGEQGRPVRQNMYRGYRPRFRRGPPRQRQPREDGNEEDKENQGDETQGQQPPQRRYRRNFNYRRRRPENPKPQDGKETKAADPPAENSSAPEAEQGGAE

HSPB1, sequence (P04792 whole entry): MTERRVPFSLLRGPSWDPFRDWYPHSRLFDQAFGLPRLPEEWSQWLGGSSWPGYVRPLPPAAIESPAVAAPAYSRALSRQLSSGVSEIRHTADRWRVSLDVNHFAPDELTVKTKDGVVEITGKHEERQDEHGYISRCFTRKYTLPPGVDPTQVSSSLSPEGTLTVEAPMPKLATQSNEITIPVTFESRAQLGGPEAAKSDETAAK

C-terminal FLAG tagged B3GNT2 (from UniProt Q9NY97 1-397) (enzyme)
co-IP mass spectrometry count [1]: 6
co-IP mass spectrometry count [2]: 4
co-IP mass spectrometry count [3]: 6
co-IP mass spectrometry count [4]: 20
co-IP mass spectrometry count [5]: 10
co-IP mass spectrometry count [6]: 6

IgG control (Millipore Sigma 12-371) (antibody)
co-IP mass spectrometry count [7]: 0
co-IP mass spectrometry count [8]: 0
co-IP mass spectrometry count [9]: 11
co-IP mass spectrometry count [10]: 0
co-IP mass spectrometry count [11]: 0
co-IP mass spectrometry count [12]: 15
co-IP mass spectrometry count [13]: 0
co-IP mass spectrometry count [14]: 5
co-IP mass spectrometry count [15]: 0
co-IP mass spectrometry count [16]: 16
co-IP mass spectrometry count [17]: 0
co-IP mass spectrometry count [18]: 6
co-IP mass spectrometry count [19]: 3
co-IP mass spectrometry count [20]: 0
co-IP mass spectrometry count [21]: 2
co-IP mass spectrometry count [22]: 0
co-IP mass spectrometry count [23]: 0
co-IP mass spectrometry count [24]: 0
co-IP mass spectrometry count [25]: 4
co-IP mass spectrometry count [26]: 3
co-IP mass spectrometry count [27]: 6
co-IP mass spectrometry count [28]: 3
co-IP mass spectrometry count [29]: 3
co-IP mass spectrometry count [30]: 10
co-IP mass spectrometry count [31]: 0
co-IP mass spectrometry count [32]: 14
co-IP mass spectrometry count [33]: 2
co-IP mass spectrometry count [34]: 4
co-IP mass spectrometry count [35]: 2
co-IP mass spectrometry count [36]: 0
co-IP mass spectrometry count [37]: 0
co-IP mass spectrometry count [38]: 2
co-IP mass spectrometry count [39]: 5
